We go through one molecule from paper PMC8391104 (2021).

Where a chain is given by its changes, count along the chain named. Where no end group is shown, it is not given here. [ ]: non-standard residue; d: D form. pT = C[C@@H](OP(=O)(O)O)[C@H](N)C(=O)O; pS = N[C@@H](COP(=O)(O)O)C(=O)O

Common to all, as to assay: ITC
One test concerns the target T1, Mad1^CTD Q627A (human, UniProt Q9Y6D9 597-718, Q627A).
T1 sequence: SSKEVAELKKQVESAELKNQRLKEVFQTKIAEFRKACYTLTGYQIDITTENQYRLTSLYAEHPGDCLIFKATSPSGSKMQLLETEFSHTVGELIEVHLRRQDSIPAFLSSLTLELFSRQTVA

Another test deals with T2, Mad1CTD K614A (Homo sapiens).
T2 chain: T1 sequence with K18A, A31Q

The target in the next test is T3, Mad1^CTD R650A (human, UniProt Q9Y6D9 597-718, R650A).
T3 sequence: T1 sequence with A31Q, R54A

Another test has as its target T4, Mad1^CTD I643A (human, UniProt Q9Y6D9 597-718, I643A).
T4 sequence: T1 sequence with A31Q, I47A

B1: doubly phosphorylated Bub1^CD1 peptide (pSer459-pThr461) (peptide)
peptide: KVQP[pS]P[pT]VHTKEALGFIMNMFQAPTS
In the case of B1, the Kd – broadly, the equilibrium constant for the complex coming apart – came to 2400 nM with Mad1^CTD Q627A, 2400 nM with Mad1CTD K614A, 1100 nM with Mad1^CTD R650A and 1400 nM with Mad1^CTD I643A.
